Assay results reported in PMC4110032, “Crystal Structure of the Stress-Inducible Human Heat Shock Protein 70 Substrate-Binding Domain in Complex with Peptide Substrate” (PLoS ONE, 2014).

Molecular target: T1, human HSP70 substrate-binding domain (residues 386–616) (human, UniProt P0DMV8 386-616)
T1 construct: Cloned into pET25 between NdeI and XhoI; The His6 tag was retained for crystallisation; A selenomethionine-derivatised form was used for phasing; also called HSP70-SBD; HSP70 SBD; source: E. coli BL21 Star (DE3), purified (Ni-NTA; size-exclusion chromatography when necessary); not shown: His6, N-terminal, kept
T1 sequence (P0DMV8 386-616): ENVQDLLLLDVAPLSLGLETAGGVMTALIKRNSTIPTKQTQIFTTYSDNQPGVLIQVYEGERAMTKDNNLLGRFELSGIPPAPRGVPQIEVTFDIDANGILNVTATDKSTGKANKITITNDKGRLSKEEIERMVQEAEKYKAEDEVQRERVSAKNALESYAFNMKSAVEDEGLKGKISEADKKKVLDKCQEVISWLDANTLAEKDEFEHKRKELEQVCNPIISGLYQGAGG
Assay: crystal structure; co-crystallised by hanging drop vapour diffusion; 5 mM NRLLLTG mixed with 400 µM HSP70 (386–616), preheated to 42°C for 15 min and cooled to room temperature; 0.1 M Bis-Tris pH 5.5, 0.2 M Li2SO4, PEG3350; 2 Å, space group C2, two complexes per asymmetric unit
Conditions: both partners purified

binding result: binds
B1: NRLLLTG peptide (peptide)
peptide: NRLLLTG
notes: hepta-peptide model substrate used in earlier DnaK structural analyses; Residues of the peptide are numbered 1-7 with the suffix p (Leu5p); also called hepta-peptide model substrate; NRLLLTG substrate peptide; source: bought: Biomatik
